Biological target: T1, human α-SNAP with an Avitag and a C-terminal 6xHis tag (human, UniProt P54920 1-295, biotin (in vitro biotinylated using BirA ligase; Avitag))
T1 construct: alpha-soluble NSF attachment protein (α-SNAP), human, amplified from HEK 293 cDNA; The methods describe a single preparation; The biotinylated protein was captured on streptavidin tips for BLI; also called biotinylated α-SNAP; Avi-Tagged human α-SNAP; source: E. coli LEMO21(DE3), pET28b, purified; in vitro biotinylated with BirA ligase; not shown: Avitag, C-terminal, kept
T1 sequence (looked up): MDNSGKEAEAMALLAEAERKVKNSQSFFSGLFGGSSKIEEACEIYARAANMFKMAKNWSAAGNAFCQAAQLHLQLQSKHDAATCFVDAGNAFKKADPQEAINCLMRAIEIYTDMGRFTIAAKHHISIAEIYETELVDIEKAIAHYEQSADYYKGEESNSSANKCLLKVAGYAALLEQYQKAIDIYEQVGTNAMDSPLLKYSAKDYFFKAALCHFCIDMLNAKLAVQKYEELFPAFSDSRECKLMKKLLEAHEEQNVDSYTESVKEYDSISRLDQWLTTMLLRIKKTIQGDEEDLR
Experiment: pull-down; MBP- or GST-tagged Stim1 or Orai1 fragments immobilised on amylose or glutathione resin, incubated with 20–50 nM α-SNAP in Ringer's buffer with 0.1% NP-40 and 2 mM imidazole, 1 hr at 4°C; washed thrice; Western blot for α-SNAP
Settings: both partners purified

binding result: binds
B1: MBP-Stim1 408–442 (CC3 domain) (domain or fragment, human, UniProt Q13586 408-442, looked up)
chain: KILTAKQALSEVTAALRERLHRWQQIEILCGFQIV
notes: Cloned into pMAL-c5X in frame with MBP; also called Stim1-CC3; source: E. coli LEMO21(DE3), purified by immobilizing on amylose resin
